Test results taken from patent US20250084142A1 (INTARCIA THERAPEUTICS, published 2025).
Starred links: 1 amine or outer side, 2 acyl side, 3 side chain; linkers in the order of their positions; H or OH if unused. Positions of bridges follow the written chain, without caps; N, C: chain ends. Non-standard residues stand in square brackets, D forms with d. Groups on a side chain read outwards from the residue. No end group written: not given here. *: point of attachment. dpeg = —[CO(CH2)O(CH2)2O(CH2)NH]— spacer, O=C(COCCOCN[*:1])[*:2]; C20 diacid = O=C(O)CCCCCCCCCCCCCCCCCCC(=O)*; C19 diacid = O=C(O)CCCCCCCCCCCCCCCCCC(=O)*; γGlu = O=C(O)[C@H](CCC(=O)[*:2])N[*:1]

B1: Compound A39 (peptide)
peptide: PKPEKPGK([γGlu-γGlu-C19 diacid])DASPKEWERYYKDLRHYLNWLTRQRF-NH2
modifications: lactam 16-20; N-terminus assumed
SMILES: CC(C)C[C@H](NC(=O)[C@H](CC(=O)O)NC(=O)[C@@H]1CCCCNC(=O)CC[C@H](NC(=O)[C@H](Cc2c[nH]c3ccccc23)NC(=O)[C@H](CCC(=O)O)NC(=O)[C@H](CCCCN)NC(=O)[C@@H]2CCCN2C(=O)[C@H](CO)NC(=O)[C@H](C)NC(=O)[C@H](CC(=O)O)NC(=O)[C@H](CCCCNC(=O)CC[C@H](NC(=O)CC[C@H](NC(=O)CCCCCCCCCCCCCCCCCC(=O)O)C(=O)O)C(=O)O)NC(=O)CNC(=O)[C@@H]2CCCN2C(=O)[C@H](CCCCN)NC(=O)[C@H](CCC(=O)O)NC(=O)[C@@H]2CCCN2C(=O)[C@H](CCCCN)NC(=O)[C@@H]2CCCN2)C(=O)N[C@@H](CCCNC(=N)N)C(=O)N[C@@H](Cc2ccc(O)cc2)C(=O)N[C@@H](Cc2ccc(O)cc2)C(=O)N1)C(=O)N[C@@H](CCCNC(=N)N)C(=O)N[C@@H](Cc1c[nH]cn1)C(=O)N[C@@H](Cc1ccc(O)cc1)C(=O)N[C@@H](CC(C)C)C(=O)N[C@@H](CC(N)=O)C(=O)N[C@@H](Cc1c[nH]c2ccccc12)C(=O)N[C@@H](CC(C)C)C(=O)N[C@H](C(=O)N[C@@H](CCCNC(=N)N)C(=O)N[C@@H](CCC(N)=O)C(=O)N[C@@H](CCCNC(=N)N)C(=O)N[C@@H](Cc1ccccc1)C(N)=O)[C@@H](C)O
B2: Compound A72 (peptide)
peptide: PKPEK([γGlu-γGlu-C20 diacid])PGEDASPKEWNRYYKDLRHYLNWLTRQRF-NH2
modifications: N-terminus assumed
SMILES: CC(C)C[C@H](NC(=O)[C@H](CC(=O)O)NC(=O)[C@H](CCCCN)NC(=O)[C@H](Cc1ccc(O)cc1)NC(=O)[C@H](Cc1ccc(O)cc1)NC(=O)[C@H](CCCNC(=N)N)NC(=O)[C@H](CC(N)=O)NC(=O)[C@H](Cc1c[nH]c2ccccc12)NC(=O)[C@H](CCC(=O)O)NC(=O)[C@H](CCCCN)NC(=O)[C@@H]1CCCN1C(=O)[C@H](CO)NC(=O)[C@H](C)NC(=O)[C@H](CC(=O)O)NC(=O)[C@H](CCC(=O)O)NC(=O)CNC(=O)[C@@H]1CCCN1C(=O)[C@H](CCCCNC(=O)CC[C@H](NC(=O)CC[C@H](NC(=O)CCCCCCCCCCCCCCCCCCC(=O)O)C(=O)O)C(=O)O)NC(=O)[C@H](CCC(=O)O)NC(=O)[C@@H]1CCCN1C(=O)[C@H](CCCCN)NC(=O)[C@@H]1CCCN1)C(=O)N[C@@H](CCCNC(=N)N)C(=O)N[C@@H](Cc1c[nH]cn1)C(=O)N[C@@H](Cc1ccc(O)cc1)C(=O)N[C@@H](CC(C)C)C(=O)N[C@@H](CC(N)=O)C(=O)N[C@@H](Cc1c[nH]c2ccccc12)C(=O)N[C@@H](CC(C)C)C(=O)N[C@H](C(=O)N[C@@H](CCCNC(=N)N)C(=O)N[C@@H](CCC(N)=O)C(=O)N[C@@H](CCCNC(=N)N)C(=O)N[C@@H](Cc1ccccc1)C(N)=O)[C@@H](C)O

target: NPY1R; test: cell-based or functional assay
Sequence (P25929 whole entry): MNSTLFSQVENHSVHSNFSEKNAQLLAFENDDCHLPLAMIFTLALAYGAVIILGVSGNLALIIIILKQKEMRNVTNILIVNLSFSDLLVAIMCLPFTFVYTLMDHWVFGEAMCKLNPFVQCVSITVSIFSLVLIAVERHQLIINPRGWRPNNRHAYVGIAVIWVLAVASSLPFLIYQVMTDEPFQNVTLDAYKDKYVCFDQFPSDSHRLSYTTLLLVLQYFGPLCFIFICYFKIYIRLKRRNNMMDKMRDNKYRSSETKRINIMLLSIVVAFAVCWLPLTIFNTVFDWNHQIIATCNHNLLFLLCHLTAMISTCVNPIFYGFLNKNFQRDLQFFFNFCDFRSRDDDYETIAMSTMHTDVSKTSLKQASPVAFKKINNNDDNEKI

Question: How did the “NPY1R pEC50” value turn out when B1 was run?
Answer: Its value is 9.1 -Log(EC50, M).

Question: For PKPEAPGKDASPEEWNRYY[dK]([γGlu-dpeg-dpeg-γGlu-C20 diacid])DLRHYLNWLTRQRF-NH2 [Compound A65], which “NPY1R pEC50” value is on record?
Answer: The value was 8 -Log(EC50, M).

Question: Which “NPY1R pEC50” value does the source give for B2 here?
Answer: The value was 9 -Log(EC50, M).

target: T1, NPY5R; test: cell-based or functional assay
T1 sequence (Q15761 1-445, species assumed, looked up): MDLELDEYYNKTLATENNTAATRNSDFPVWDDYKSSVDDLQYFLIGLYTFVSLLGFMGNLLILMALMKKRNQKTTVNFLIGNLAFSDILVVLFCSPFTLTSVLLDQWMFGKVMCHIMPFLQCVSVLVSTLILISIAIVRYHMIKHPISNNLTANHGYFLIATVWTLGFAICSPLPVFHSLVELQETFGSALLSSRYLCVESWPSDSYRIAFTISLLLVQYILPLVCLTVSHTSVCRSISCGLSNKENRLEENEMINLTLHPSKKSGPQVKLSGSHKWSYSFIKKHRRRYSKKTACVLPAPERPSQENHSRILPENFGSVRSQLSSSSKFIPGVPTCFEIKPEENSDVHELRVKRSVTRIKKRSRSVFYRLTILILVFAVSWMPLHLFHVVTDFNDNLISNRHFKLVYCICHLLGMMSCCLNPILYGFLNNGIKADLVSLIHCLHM

Question: With B1 as the binder, how does the “NPY5R pEC50” value read?
Answer: Its value is 8.9 -Log(EC50, M).

Question: Which “NPY5R pEC50” value does the source give for PKPEAPGKDASPEEWNRYY[dK]([γGlu-dpeg-dpeg-γGlu-C20 diacid])DLRHYLNWLTRQRF-NH2 [Compound A65] here?
Answer: The value was 8.6 -Log(EC50, M).

Question: How did the “NPY5R pEC50” value turn out when B2 was run?
Answer: The value was 8.8 -Log(EC50, M).

target: T2, NPY2R; test: cell-based or functional assay
T2 sequence (P49146 1-381, species assumed, looked up): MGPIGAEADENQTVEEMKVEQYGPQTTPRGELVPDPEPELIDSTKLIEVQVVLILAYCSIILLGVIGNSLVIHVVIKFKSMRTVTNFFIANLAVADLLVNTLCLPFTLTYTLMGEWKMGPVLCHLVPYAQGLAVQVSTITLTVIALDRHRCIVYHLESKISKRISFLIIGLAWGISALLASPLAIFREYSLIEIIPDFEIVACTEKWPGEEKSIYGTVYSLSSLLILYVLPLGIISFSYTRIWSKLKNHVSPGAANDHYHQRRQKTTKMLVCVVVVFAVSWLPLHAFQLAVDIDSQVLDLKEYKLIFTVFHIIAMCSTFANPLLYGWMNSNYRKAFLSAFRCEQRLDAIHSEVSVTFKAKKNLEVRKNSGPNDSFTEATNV

Question: With B1 as the binder, how does the “NPY2R pEC50” value read?
Answer: The value was 10.4 -Log(EC50, M).

Question: How did the “NPY2R pEC50” value turn out when PKPEAPGKDASPEEWNRYY[dK]([γGlu-dpeg-dpeg-γGlu-C20 diacid])DLRHYLNWLTRQRF-NH2 [Compound A65] was run?
Answer: Its value is 10.2 -Log(EC50, M).

Question: B2 was tested. Which “NPY2R pEC50” value did it give?
Answer: Its value is 10.8 -Log(EC50, M).
